Measurements published in patent US20240262917.

Legend:
[1] = target: ALK LF655del cleavage site mutant
[2] = target: Full-length human anaplastic lymphoma kinase (ALK) receptor, wild type
Full-length human anaplastic lymphoma kinase (ALK) receptor, wild type, sequence (chain, as listed by the source): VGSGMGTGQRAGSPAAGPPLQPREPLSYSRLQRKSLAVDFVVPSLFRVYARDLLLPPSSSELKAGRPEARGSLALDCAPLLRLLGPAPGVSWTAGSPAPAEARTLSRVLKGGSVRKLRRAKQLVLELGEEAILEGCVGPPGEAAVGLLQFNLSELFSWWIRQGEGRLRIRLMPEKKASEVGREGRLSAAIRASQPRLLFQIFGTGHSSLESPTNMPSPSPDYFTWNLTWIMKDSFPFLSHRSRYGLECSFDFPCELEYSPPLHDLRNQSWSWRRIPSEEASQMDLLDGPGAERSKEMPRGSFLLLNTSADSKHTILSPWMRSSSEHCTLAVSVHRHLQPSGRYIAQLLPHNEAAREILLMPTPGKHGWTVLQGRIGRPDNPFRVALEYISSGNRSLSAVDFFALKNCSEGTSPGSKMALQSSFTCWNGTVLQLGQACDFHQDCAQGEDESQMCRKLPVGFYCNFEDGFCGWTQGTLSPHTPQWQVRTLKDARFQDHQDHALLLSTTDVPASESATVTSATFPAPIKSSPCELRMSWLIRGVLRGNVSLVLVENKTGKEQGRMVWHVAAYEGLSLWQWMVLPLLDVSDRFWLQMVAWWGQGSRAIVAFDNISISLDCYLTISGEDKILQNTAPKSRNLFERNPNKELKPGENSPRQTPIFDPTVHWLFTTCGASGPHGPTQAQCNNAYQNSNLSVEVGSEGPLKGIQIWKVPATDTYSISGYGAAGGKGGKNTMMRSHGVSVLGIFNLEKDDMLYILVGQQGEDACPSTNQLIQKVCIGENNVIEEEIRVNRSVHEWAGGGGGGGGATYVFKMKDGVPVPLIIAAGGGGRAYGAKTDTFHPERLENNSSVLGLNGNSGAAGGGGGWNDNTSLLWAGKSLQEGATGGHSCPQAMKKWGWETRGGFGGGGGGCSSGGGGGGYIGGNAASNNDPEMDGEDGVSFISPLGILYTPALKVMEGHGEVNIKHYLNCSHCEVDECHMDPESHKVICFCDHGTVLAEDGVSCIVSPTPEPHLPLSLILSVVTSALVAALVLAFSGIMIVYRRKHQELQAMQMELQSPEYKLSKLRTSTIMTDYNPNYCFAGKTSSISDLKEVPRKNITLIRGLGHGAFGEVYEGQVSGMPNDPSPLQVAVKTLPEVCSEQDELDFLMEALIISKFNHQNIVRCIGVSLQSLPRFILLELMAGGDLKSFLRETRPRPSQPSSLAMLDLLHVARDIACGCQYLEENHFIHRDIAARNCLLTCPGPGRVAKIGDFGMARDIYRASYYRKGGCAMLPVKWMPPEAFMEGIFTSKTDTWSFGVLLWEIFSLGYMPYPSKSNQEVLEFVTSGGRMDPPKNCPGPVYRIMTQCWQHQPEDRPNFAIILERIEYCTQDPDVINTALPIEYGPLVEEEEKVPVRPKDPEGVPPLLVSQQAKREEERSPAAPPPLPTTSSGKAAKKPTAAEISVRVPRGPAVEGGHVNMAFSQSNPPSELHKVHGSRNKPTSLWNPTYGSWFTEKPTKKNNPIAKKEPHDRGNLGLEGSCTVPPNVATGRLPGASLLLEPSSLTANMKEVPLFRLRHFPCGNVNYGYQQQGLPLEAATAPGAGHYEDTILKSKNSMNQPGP

ALK LF655del cleavage site mutant, sequence (chain, as listed by the source mutant): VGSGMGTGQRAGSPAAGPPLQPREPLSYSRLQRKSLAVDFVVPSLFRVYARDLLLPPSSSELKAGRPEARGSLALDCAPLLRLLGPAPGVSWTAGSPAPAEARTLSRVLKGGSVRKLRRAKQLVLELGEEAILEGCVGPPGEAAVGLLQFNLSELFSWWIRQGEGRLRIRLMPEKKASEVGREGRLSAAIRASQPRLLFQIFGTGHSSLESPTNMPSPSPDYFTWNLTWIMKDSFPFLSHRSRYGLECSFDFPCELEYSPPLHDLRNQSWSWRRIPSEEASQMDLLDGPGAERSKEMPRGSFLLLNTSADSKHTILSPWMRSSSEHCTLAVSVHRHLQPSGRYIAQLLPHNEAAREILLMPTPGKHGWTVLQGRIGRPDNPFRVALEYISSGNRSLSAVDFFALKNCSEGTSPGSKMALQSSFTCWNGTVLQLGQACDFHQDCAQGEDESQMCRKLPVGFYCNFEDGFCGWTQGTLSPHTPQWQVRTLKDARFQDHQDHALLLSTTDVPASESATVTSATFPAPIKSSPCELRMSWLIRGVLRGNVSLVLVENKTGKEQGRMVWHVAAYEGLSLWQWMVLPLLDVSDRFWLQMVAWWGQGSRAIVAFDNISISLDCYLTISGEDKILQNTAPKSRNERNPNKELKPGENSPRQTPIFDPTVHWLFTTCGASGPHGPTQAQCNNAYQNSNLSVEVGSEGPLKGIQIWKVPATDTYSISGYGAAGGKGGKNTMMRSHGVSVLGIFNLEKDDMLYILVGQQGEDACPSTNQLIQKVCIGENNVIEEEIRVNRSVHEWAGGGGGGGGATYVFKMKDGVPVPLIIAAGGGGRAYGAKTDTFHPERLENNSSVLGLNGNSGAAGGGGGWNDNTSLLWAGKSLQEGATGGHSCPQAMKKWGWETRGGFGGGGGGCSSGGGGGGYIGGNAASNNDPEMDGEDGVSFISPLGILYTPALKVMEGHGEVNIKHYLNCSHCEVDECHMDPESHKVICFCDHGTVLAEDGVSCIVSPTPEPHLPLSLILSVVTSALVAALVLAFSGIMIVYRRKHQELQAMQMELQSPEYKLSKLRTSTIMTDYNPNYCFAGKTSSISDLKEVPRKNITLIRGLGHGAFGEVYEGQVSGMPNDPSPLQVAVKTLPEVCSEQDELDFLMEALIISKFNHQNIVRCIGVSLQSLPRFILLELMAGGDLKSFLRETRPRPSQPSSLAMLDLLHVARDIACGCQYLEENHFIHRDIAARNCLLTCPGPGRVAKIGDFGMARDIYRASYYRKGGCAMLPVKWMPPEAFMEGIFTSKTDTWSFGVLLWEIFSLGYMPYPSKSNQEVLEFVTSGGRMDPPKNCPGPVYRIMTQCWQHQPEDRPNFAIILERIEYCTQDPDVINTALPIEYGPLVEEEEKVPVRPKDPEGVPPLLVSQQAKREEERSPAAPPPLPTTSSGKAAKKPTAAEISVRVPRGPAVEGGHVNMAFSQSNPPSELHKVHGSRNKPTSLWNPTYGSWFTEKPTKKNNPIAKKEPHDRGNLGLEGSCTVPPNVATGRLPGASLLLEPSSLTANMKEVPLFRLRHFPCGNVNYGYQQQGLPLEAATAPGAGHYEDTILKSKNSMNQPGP

B1: Full-length recombinant human MMP-9 (protein)
chain: APRQRQSTLVLFPGDLRTNLTDRQLAEEYLYRYGYTRVAEMRGESKSLGPALLLLQKQLSLPETGELDSATLKAMRTPRCGVPDLGRFQTFEGDLKWHHHNITYWIQNYSEDLPRAVIDDAFARAFALWSAVTPLTFTRVYSRDADIVIQFGVAEHGDGYPFDGKDGLLAHAFPPGPGIQGDAHFDDDELWSLGKGVVVPTRFGNADGAACHFPFIFEGRSYSACTTDGRSDGLPWCSTTANYDTDDRFGFCPSERLYTQDGNADGKPCQFPFIFQGQSYSACTTDGRSDGYRWCATTANYDRDKLFGFCPTRADSTVMGGNSAGELCVFPFTFLGKEYSTCTSEGRGDGRLWCATTSNFDSDKKWGFCPDQGYSLFLVAAHEFGHALGLDHSSVPEALMYPMYRFTEGPPLHKDDVNGIRHLYGPRPEPEPRPPTTTTPQPTAPPTVCPTGPPTVHPSERPTAGPTGPPSAGPTGPPTAGPSTATTVPLSPVDDACNVNIFDAIAEIGNQLYLFKDGKYWRFSEGRGSRPQGPFLIADKWPALPRKLDSVFEERLSKKLFFFSGRQVWVYTGASVLGPRRLDKLGLGADVAQVTGALRSGRGKMLLFSGRRLWRFDVKAQMVDPRSASEVDRMFPGVPLDTHDVFQYREKAYFCQDRFYWRVSSRSELNQVDQVGYVTYDILQCPED
in vitro cleavage assay (western blot of ALK) [1]: but not the ALK LF655del protein | in vitro cleavage assay (western blot of ALK) [2]: Treatment of purified WT ALK, but not the ALK LF655del protein, with recombinant human MMP-9 resulted in ALK cleavage
